Source: publication PMC4613500 (2015)

B1: Chordin (protein)
chain: AGPEPPVLPIRSEKEPLPVRGAAGCTFGGKVYALDETWHPDLGEPFGVMRCVLCACEAPQWGRRTRGPGRVSCKNIKPECPTPACGQPRQLPGHCCQTCPQERSSSERQPSGLSFEYPRDPEHRSYSDRGEPGAEERARGDGHTDFVALLTGPRSQAVARARVSLLRSSLRFSISYRRLDRPTRIRFSDSNGSVLFEHPAAPTQDGLVCGVWRAVPRLSLRLLRAEQLHVALVTLTHPSGEVWGPLIRHRALAAETFSAILTLEGPPQQGVGGITLLTLSDTEDSLHFLLLFRGLLEPRSGGLTQVPLRLQILHQGQLLRELQANVSAQEPGFAEVLPNLTVQEMDWLVLGELQMALEWAGRPGLRISGHIAARKSCDVLQSVLCGADALIPVQTGAAGSASLTLLGNGSLIYQVQVVGTSSEVVAMTLETKPQRRDQRTVLCHMAGLQPGGHTAVGICPGLGARGAHMLLQNELFLNVGTKDFPDGELRGHVAALPYCGHSARHDTLPVPLAGALVLPPVKSQAAGHAWLSLDTHCHLHYEVLLAGLGGSEQGTVTAHLLGPPGTPGPRRLLKGFYGSEAQGVVKDLEPELLRHLAKGMASLMITTKGSPRGELRGQVHIANQCEVGGLRLEAAGAEGVRALGAPDTASAAPPVVPGLPALAPAKPGGPGRPRDPNTCFFEGQQRPHGARWAPNYDPLCSLCTCQRRTVICDPVVCPPPSCPHPVQAPDQCCPVCPEKQDVRDLPGLPRSRDPGEGCYFDGDRSWRAAGTRWHPVVPPFGLIKCAVCTCKGGTGEVHCEKVQCPRLACAQPVRVNPTDCCKQCPVGSGAHPQLGDPMQADGPRGCRFAGQWFPESQSWHPSVPPFGEMSCITCRCGAGVPHCERDDCSLPLSCGSGKESRCCSRCTAHRRPAPETRTDPELEKEAEGS
B2: Chordin ∆C ∆C (C-terminally tolloid-cleaved fragment, lacking vWC4) (protein)
chain: AGPEPPVLPIRSEKEPLPVRGAAGCTFGGKVYALDETWHPDLGEPFGVMRCVLCACEAPQWGRRTRGPGRVSCKNIKPECPTPACGQPRQLPGHCCQTCPQERSSSERQPSGLSFEYPRDPEHRSYSDRGEPGAEERARGDGHTDFVALLTGPRSQAVARARVSLLRSSLRFSISYRRLDRPTRIRFSDSNGSVLFEHPAAPTQDGLVCGVWRAVPRLSLRLLRAEQLHVALVTLTHPSGEVWGPLIRHRALAAETFSAILTLEGPPQQGVGGITLLTLSDTEDSLHFLLLFRGLLEPRSGGLTQVPLRLQILHQGQLLRELQANVSAQEPGFAEVLPNLTVQEMDWLVLGELQMALEWAGRPGLRISGHIAARKSCDVLQSVLCGADALIPVQTGAAGSASLTLLGNGSLIYQVQVVGTSSEVVAMTLETKPQRRDQRTVLCHMAGLQPGGHTAVGICPGLGARGAHMLLQNELFLNVGTKDFPDGELRGHVAALPYCGHSARHDTLPVPLAGALVLPPVKSQAAGHAWLSLDTHCHLHYEVLLAGLGGSEQGTVTAHLLGPPGTPGPRRLLKGFYGSEAQGVVKDLEPELLRHLAKGMASLMITTKGSPRGELRGQVHIANQCEVGGLRLEAAGAEGVRALGAPDTASAAPPVVPGLPALAPAKPGGPGRPRDPNTCFFEGQQRPHGARWAPNYDPLCSLCTCQRRTVICDPVVCPPPSCPHPVQAPDQCCPVCPEKQDVRDLPGLPRSRDPGEGCYFDGDRSWRAAGTRWHPVVPPFGLIKCAVCTCKGGTGEVHCEKVQCPRLACAQPVRVNPTDCCKQCPVGSGA

How the values were obtained:
SPR = molecular target: the molecule itself; experiment: SPR
[1] = molecular target: the molecule itself; experiment: sedimentation velocity analytical ultracentrifugation

Protein | Kd (SPR) | Kd [1]
B1 | 3.05 nM | 3300 nM
B2 | 3.15 nM | 
